Measurements reported in publication PMC12334862.

Experiments:
[1] = target: His6-tagged dimerization-deficient rat gephyrin variant (G483D, S505F), trimers (ddGephT) (rat); assay: SEC; single proteins: preparative Superdex 200 16/60 after Ni-NTA and analytical Superose 6 increase; molecular weights by comparison to standard proteins; oligomeric state of the protein with itself
[2] = target: His6-tagged rat gephyrin P1, wild type, high oligomers (GephHO) (rat); assay: SEC; as a1 with 1.5 nmol of the respective PIP (10 mol% in POPC) or POPC alone in DDM micelles added; SEC buffer with 0.01% DDM; height of the > 5 MDa void peak P1 at 280 nm
[3] = target: His6-tagged rat gephyrin E-domain, wild type (WT-GephE) (rat); assay: mass photometry; Refeyn TwoMP; 5 nM final in 25 mM Tris/HCl pH 7.5, 150 mM NaCl, 5 mM β-mercaptoethanol, 1% glycerol; 60 s
[4] = target: His6-tagged rat gephyrin P1, wild type, high oligomers (GephHO) (rat); assay: SEC; single proteins: preparative Superdex 200 16/60 after Ni-NTA and analytical Superose 6 increase; molecular weights by comparison to standard proteins; oligomeric state of the protein with itself
[5] = target: His6-tagged rat gephyrin P1, wild type, trimers (GephT) (rat); assay: as above
[6] = target: collybistin CB2SH3+ (Rattus norvegicus) (UniProt Q9QX73); assay: FRET; settings: cited from earlier work
[7] = target: gephyrin from pig brain (pig (endogenous in pig brain tissue)); assay: native gel or EMSA; blue native PAGE (4%-16%) of the cytosol fraction of pig brain, western blot for gephyrin

Chain of collybistin CB2SH3+ (Rattus norvegicus) (Q9QX73 whole entry): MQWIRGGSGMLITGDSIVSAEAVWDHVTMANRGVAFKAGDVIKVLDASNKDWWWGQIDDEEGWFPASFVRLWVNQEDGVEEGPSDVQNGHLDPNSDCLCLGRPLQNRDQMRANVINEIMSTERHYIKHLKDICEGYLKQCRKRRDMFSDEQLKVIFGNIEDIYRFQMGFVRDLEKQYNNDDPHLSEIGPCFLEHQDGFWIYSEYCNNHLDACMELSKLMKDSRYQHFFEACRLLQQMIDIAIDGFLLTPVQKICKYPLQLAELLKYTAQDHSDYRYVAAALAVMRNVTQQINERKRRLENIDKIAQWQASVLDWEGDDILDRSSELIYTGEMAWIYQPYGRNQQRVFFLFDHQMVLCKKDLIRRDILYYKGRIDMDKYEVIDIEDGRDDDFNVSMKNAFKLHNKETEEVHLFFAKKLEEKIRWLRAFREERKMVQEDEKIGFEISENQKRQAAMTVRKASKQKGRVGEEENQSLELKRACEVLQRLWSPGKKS
Chain of gephyrin E-domain (Q03555 326-768): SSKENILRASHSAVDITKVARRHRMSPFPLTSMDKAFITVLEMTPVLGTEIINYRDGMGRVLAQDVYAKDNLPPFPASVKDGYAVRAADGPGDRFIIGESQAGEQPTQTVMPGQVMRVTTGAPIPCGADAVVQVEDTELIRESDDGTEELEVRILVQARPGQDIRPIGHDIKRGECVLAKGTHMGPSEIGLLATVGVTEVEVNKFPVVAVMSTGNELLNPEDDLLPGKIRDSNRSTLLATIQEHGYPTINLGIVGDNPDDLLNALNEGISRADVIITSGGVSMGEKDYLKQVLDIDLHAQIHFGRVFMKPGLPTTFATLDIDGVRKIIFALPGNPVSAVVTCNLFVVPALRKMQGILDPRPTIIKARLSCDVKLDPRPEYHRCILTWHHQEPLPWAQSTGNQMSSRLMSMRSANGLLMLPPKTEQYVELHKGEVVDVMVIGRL

His6-tagged dimerization-deficient rat gephyrin variant (G483D, S505F), trimers (ddGephT) (natural protein)
stoichiometry N [1]: 3

His6-tagged rat collybistin isoform 2 lacking the SH3 domain (CB2_(SH3-)) (natural protein)
P1 (> 5 MDa complex peak) absorption at 280 nm with PI(3,4)P2 [2]: 344 mAU
P1 (> 5 MDa complex peak) absorption at 280 nm with PI(3,4,5)P3 [2]: 378 mAU
P1 (> 5 MDa complex peak) absorption at 280 nm with PI(4,5)P2 [2]: 255 mAU
P1 (> 5 MDa complex peak) absorption at 280 nm with POPC [2]: 148 mAU
increase of the CB2SH3- band share within P1 with PI(3,4,5)P3 against the POPC control [2]: 22%
increase of the GephHO band share within P1 with PI(3,4,5)P3 against the POPC control [2]: 21%

His6-tagged rat gephyrin E-domain, wild type (WT-GephE) (domain or fragment)
stoichiometry N [3]: 2

His6-tagged rat gephyrin P1, wild type, high oligomers (GephHO) (natural protein)
stoichiometry N [4]: 12

His6-tagged rat gephyrin P1, wild type, trimers (GephT) (natural protein)
stoichiometry N [5]: 3

gephyrin E-domain (from UniProt Q03555)
Kd [6]: 6.3 µM

gephyrin from pig brain (natural protein)
stoichiometry N [7]: 3
